Measured values taken from US5968526A, “T cell epitopes of the major allergens from Dermatophagoides (house dust mite)” (Immulogic Pharamaceutical Corporation, priority 1995, dated 1999).

Key:
[1] = system: mast cells or basophils; assay: histamine release; type: cell-based, human; conditions: data not shown
Protocol: To determine whether a peptide which binds IgE results in the release of mediators, a histamine release assay can be performed using standard reagents and protocols obtained for example, from Amac, Inc. (Westbrook, Me.). Briefly, a buffered solution of a peptide to be tested is combined with an equal volume of whole heparinized blood from an allergic subject. After mixing and incubation, the cells are pelleted and the supernatants are processed and analyzed using a radioimmunoassay to determine the amount of histamine released.

[2] = pH-stability profile / solution stability (HPLC); type: physicochemical; conditions: pH 6 to pH 8
Protocol: (§1) 50 mM sodium phosphate stock solutions:
(§2) Stock solution A: 0.66 g […] of monobasic sodium phosphate monohydrate U.S.P. and 50 mg EDTA disodium dihydrate, U.S.P. were dissolved in 100 mL of WFI. The solution was filtered through a 0.2 micron filter
(§3) Stock solution B: 0.71 g […] of dibasic sodium phosphate U.S.P. were disolved in 100 ml WFI. The solution was filtered through a 0.2 micron filter.
(§4) 2. Initial peptide dispersions
(§5) Dispersion A: 3.0 mg of each candidate peptide,DPI-21.2 (SEQ. ID. NO. 28), DFI-22.2 (SEQ. ID. NO. 93), DFI-23.31(SEQ. ID. NO. 165), DFI-26.6 (SEQ. ID. NO. 168), DPII-20.9 (SEQ. ID. NO. 169), DPII-22.14 (SEQ. ID. NO. 180) and DPII-25.15 (SEQ. ID. NO. 188), was weighed out separately and placed in separate 1.5 mL eppendoff vials with 600 μL of stock solution A. The composition was agitated for 1 seconds to mix well.
(§6) Dispersion B: 3.0 mg of each peptide, DPI-21.2 (SEQ. ID. NO. 28), DFI-22.2 (SEQ. ID. NO. 93), DFI-23.31(SEQ. ID. NO. 165), DFI-26.6 (SEQ. ID. NO. 168), DPII-20.9 (SEQ. ID. NO. 169), DPII-22.14 (SEQ. ID. NO. 180) and DPII-25.15 (SEQ. ID. NO. 188), was weighed out separately and placed in separate 1.5 mL eppendoff vials with 600 μL of stock solution B. The mixture was agitated for 5 seconds to mix well.
(§7) Dispersions A and B were sonicated for 2 minutes for good homogeneity. A small volume was pipetted from each dispersion into a labeled eppendoff vial according to the following volume ratio:
(§8) The resultant solutions/suspensions were stored in the dark at about 22° C.±2 for 24 hours without agitation. The solutions were filtered and filtrates were analyzed for pH and peptide concentration.
(§9) The concentration of filtered peptide solutions was determined by HPLC analysis. In this experiment, the solubility of peptide at each pH is defined as the amount of peptide remaining in solution after filtration through a membrane filter having a 0.2 micrometer pore size. The extent of degradation of peptides was estimated by calculating the percent of total degradant peak area over the total peak area.
The pH-stability profiles for each peptide DPI-21.2 (SEQ. ID. NO. 28), DFI-22.2 (SEQ. ID. NO. 93), DFI-23.31(SEQ. ID. NO. 165), DFI-26.6 (SEQ. ID. NO. 168), DPII-20.9 (SEQ. ID. NO. 169), DPII-22.14 (SEQ. ID. NO. 180) and DPII-25.15 (SEQ. ID. NO. 188) in equal concentration combination at 3, 2, and 1 mg/ml per peptide and prepared in duplicate as described above with one set stored at about 5° C. for 24 hours and one set stored at about 22° C.±2 for 24 hours, were calculated and tabulated as a function of the percentage of total of degradant peak area (FIG. 38).

[3] = pH-solubility profile; type: physicochemical; conditions: for solubility: at a pH in the range pH 6 to pH 8; for solubility (in words): aqueous buffer, superior solubility = >3 mg/ml at pH 6-8
Protocol: as §1, §2, §3, §4, §5, §6, §7, §8, §9
The pH values with respect to the solubility values was plotted and are shown in FIG. 37 for each respective peptide. As shown in the solubility curve for each peptide as represented in FIG. 37, peptides DPI-21.2 (SEQ. ID. NO. 28), DFI-22.2 (SEQ. ID. NO. 93), DFI-23.31 (SEQ. ID. NO. 165), DFI-26.6 (SEQ. ID. NO. 168), DPII-20.9 (SEQ. ID. NO. 169), DPII-22.14 (SEQ. ID. NO. 180) and DPII-25.15 (SEQ. ID. NO. 188) are each soluble at greater than 3 mg/ml at a pH in the pH range of pH 6 to pH 8.

[4] = system: human IgE; assay: direct binding ELISA of IgE to mite allergen proteins and peptides; conditions: for IgE reactivity, candidate peptides: data not shown; for IgE binding (ELISA), modified peptides: plasma of 19 mite-allergic patients and pool of 18, Example XV

Substance	histamine release [1]	stability (in words) [2]	solubility [3]	IgE reactivity, candidate peptides [4]	solubility (in words) [3]	IgE binding (ELISA), modified peptides [4]	stability (in words) ([2]; listed as SEQ. ID. NO. 207)
DP I-21.2: Der p I peptide; unique peptide (SINGNAPAEIDLRQMRTVTPIRMQ)	negative	acceptable solution stability	greater than 3 mg/ml	negative	–	–	–
DF I-22.2: VAATESAYLAYRNTSLDLSEQELVD, amino acid residues 40-64 of Der f I	negative	acceptable solution stability	greater than 3 mg/ml	negative	–	–	–
DP I-26.6: modified Der p I peptide; unique peptide (DEGIKDLDAFRHYDGRTIIQRDNGYE)	negative	acceptable solution stability	greater than 3 mg/ml	negative	–	–	–
DP II-22.14: DKELEAVFEANQNTKTAKAE; unique peptide	negative	acceptable solution stability	greater than 3 mg/ml	negative	increased by an order of magnitude	No plasma samples contained IgE	–
DP II-22: QLEAVFEANQNTKTAKIEIKASIDGLEV	–	stable	–	–	did not meet the "superior solubility" requirement of 3 mg/ml	–	nor did it meet the stability requirement
DP I-23.31: modified Der p I peptide; unique peptide (DEEGVVQESYYRYVAREQSCRRPNAE)	negative	acceptable solution stability	greater than 3 mg/ml	negative	–	No plasma samples contained IgE	–
DP II-20.9: modified Der p II peptide; unique peptide (DQVDVKDCANHEIKKVLVPGCHGSE)	negative	acceptable solution stability	greater than 3 mg/ml	negative	–	No plasma samples contained IgE	–
